The supplement of paper PMC10201428
± gives the standard deviation of the averaged measurements.

Legend:
[1] = tested on: VchCAST RNA-guided transposition machinery (E. coli BL21(DE3) host, lacZ target); experiment: relative integration efficiency (T-RL orientation) vs wild-type transposon end (log2 (normalized fold change)); transposon end mutated: right end (5 bp flank + 75 bp right end); higher = more efficient transposition
Summary of the method: (§1)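 Relative integration efficiency is a fold change of output over input barcode abundance, normalised to reference barcodes and log-transformed. Input plasmids and genomic integration junctions were PCR-amplified and Illumina-sequenced from E. coli BL21(DE3) co-transformed with a T7-driven effector plasmid and pUC57 donor pools of 1549 left-end or 1849 right-end transposon variants. Plating was done with 0.1 mM IPTG at 37°C for 18 h, with two biological output replicates and four reference barcodes.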

[2] = tested on: VchCAST RNA-guided transposition machinery (E. coli BL21(DE3) host, lacZ target); experiment: relative integration efficiency (T-LR orientation) vs wild-type transposon end (log2 (normalized fold change)); transposon end mutated: right end (5 bp flank + 75 bp right end); higher = more efficient transposition
Summary of the method: as §1

Sequence	relative integration efficiency (log2) [1]	relative integration efficiency (log2) [2]
ACATTTGTTGATACAACCATAAAATGATAATTACACCCATAAATTCATTATTATCACACCCAATTTAACTATAACGCTCTGATCATAGTCAGACCAACATTGCTACGACCCGTATTCGCACCGACAC	-2.74 ± 0.49	0.845 ± 0.28
ACATTTGTTGATACAACCATAAAATGATAATTACACCCATAAATTCTATATTATCACACCCATAAATTGATATTGCCTCTGATCATAGTCAGACCAACATTGCTACGACCCGTATTCGCACCGACAC	-2.002 ± 0.013	-0.688 ± 0.11
ACATTTGTTGATACAACCATAAAATGATAATTACACCCATAAATTCTTAATTATCACACCCATAAATTGATATTGCCTCTGATCATAGTCAGACCAACATTGCTACGACCCGTATTCGCACCGACAC	-1.43 ± 0.18	-1.33 ± 0.28
ACATTTGTTGATACAACCATAAAATGATAATTACACCCATAAATTGAATATTATCACACCCATAAATTGATATTGCCTCTGATCATAGTCAGACCAACATTGCTACGACCCGTATTCGCACCGACAC	-1.1 ± 0.27	-0.409 ± 0.19
ACATTTGTTGATACAACCATAAAATGATAATTACACCCATAAATTGAATTATATCACACCCATAAATTGATATTGCCTCTGATCATAGTCAGACCAACATTGCTACGACCCGTATTCGCACCGACAC	-1.65 ± 0.026	-0.447 ± 0.17
ACATTTGTTGATACAACCATAAAATGATAATTACACCCATAAATTGAGCATTATCACACCCATAAATTGATATTGCCTCTGATCATAGTCAGACCAACATTGCTACGACCCGTATTCGCACCGACAC	-0.525 ± 0.0063	-0.422 ± 0.13
ACATTTGTTGATACAACCATAAAATGATAATTACACCCATAAATTGAGCCGGCGACACAAACGCCCGGTCGCGGTAAGAGGATCATAGTCAGACCAACATTGCTACGACCCGTATTCGCACCGACAC	-1.02 ± 0.23	1.83 ± 0.037
ACATTTGTTGATACAACCATAAAATGATAATTACACCCATAAATTGAGCCGTATCACACCCATAAATTGATATTGCCTCTGATCATAGTCAGACCAACATTGCTACGACCCGTATTCGCACCGACAC	-1.03 ± 0.093	-1.21 ± 0.12
ACATTTGTTGATACAACCATAAAATGATAATTACACCCATAAATTGATAAAAATCACACCCATAAATTGATATTGCCTCTGATCATAGTCAGACCAACATTGCTACGACCCGTATTCGCACCGACAC	-0.355 ± 0.081	0.324 ± 0.4
ACATTTGTTGATACAACCATAAAATGATAATTACACCCATAAATTGATAAAATACACACCCATAAATTGATATTGCCTCTGATCATAGTCAGACCAACATTGCTACGACCCGTATTCGCACCGACAC	-0.37 ± 0.071	-0.0186 ± 0.38
ACATTTGTTGATACAACCATAAAATGATAATTACACCCATAAATTGATAAGGATCACACCCATAAATTGATATTGCCTCTGATCATAGTCAGACCAACATTGCTACGACCCGTATTCGCACCGACAC	-0.665 ± 0.083	-0.0336 ± 0.22
ACATTTGTTGATACAACCATAAAATGATAATTACACCCATAAATTGATAAGGCGACACAAACGCCCGGTCGCGGTAAGAGGATCATAGTCAGACCAACATTGCTACGACCCGTATTCGCACCGACAC	-0.882 ± 0.14	2.27 ± 0.23
ACATTTGTTGATACAACCATAAAATGATAATTACACCCATAAATTGATAAGGCGCACACCCATAAATTGATATTGCCTCTGATCATAGTCAGACCAACATTGCTACGACCCGTATTCGCACCGACAC	-0.436 ± 0.083	-0.0146 ± 0.0051
ACATTTGTTGATACAACCATAAAATGATAATTACACCCATAAATTGATAATAATGACACCGAATTTAACTATAACGCTCTGATCATAGTCAGACCAACATTGCTACGACCCGTATTCGCACCGACAC	1.54 ± 0.64	5.35 ± 0.24
ACATTTGTTGATACAACCATAAAATGATAATTACACCCATAAATTGATAATATAGACACCCATAAATTGATATTGCCTCTGATCATAGTCAGACCAACATTGCTACGACCCGTATTCGCACCGACAC	-0.321 ± 0.15	-0.0877 ± 0.52
ACATTTGTTGATACAACCATAAAATGATAATTACACCCATAAATTGATAATATTCACACCCATAAATTGATATTGCCTCTGATCATAGTCAGACCAACATTGCTACGACCCGTATTCGCACCGACAC	-0.274 ± 0.23	-0.107 ± 0.095
ACATTTGTTGATACAACCATAAAATGATAATTACACCCATAAATTGATAATCACACCCATAAATTGATATTGCCTCTGATCATAGTCAGACCAACATTGCTACGACCCGTATTCGCACCGACACTGA	-1.32 ± 0.31	1.82 ± 0.057
ACATTTGTTGATACAACCATAAAATGATAATTACACCCATAAATTGATAATGATGACACCGAATTTAACTATAACGCTCTGATCATAGTCAGACCAACATTGCTACGACCCGTATTCGCACCGACAC	-1.34 ± 0.27	2.06 ± 0.097

Sequence	relative integration efficiency (log2) [1]	relative integration efficiency (log2) [2]
ACATTTGTTGATACAACCATAAAATGATAATTACACCCATAAATTGATAATGCGAACACCCATAAATTGATATTGCCTCTGATCATAGTCAGACCAACATTGCTACGACCCGTATTCGCACCGACAC	-0.292 ± 0.045	0.16 ± 0.083
ACATTTGTTGATACAACCATAAAATGATAATTACACCCATAAATTGATAATGCGACACAAACGCCCGGTCGCGGTAAGAGGATCATAGTCAGACCAACATTGCTACGACCCGTATTCGCACCGACAC	-0.485 ± 0.11	2.69 ± 0.1
ACATTTGTTGATACAACCATAAAATGATAATTACACCCATAAATTGATAATGCTCACACCCATAAATTGATATTGCCTCTGATCATAGTCAGACCAACATTGCTACGACCCGTATTCGCACCGACAC	-0.488 ± 0.1	0.654 ± 0.025
ACATTTGTTGATACAACCATAAAATGATAATTACACCCATAAATTGATAATTAAAACACCCATAAATTGATATTGCCTCTGATCATAGTCAGACCAACATTGCTACGACCCGTATTCGCACCGACAC	-0.399 ± 0.27	0.089 ± 0.23
ACATTTGTTGATACAACCATAAAATGATAATTACACCCATAAATTGATAATTAAGACACCCATAAATTGATATTGCCTCTGATCATAGTCAGACCAACATTGCTACGACCCGTATTCGCACCGACAC	-0.306 ± 0.23	-0.137 ± 0.32
ACATTTGTTGATACAACCATAAAATGATAATTACACCCATAAATTGATAATTAAGTGACCCATAAATTGATATTGCCTCTGATCATAGTCAGACCAACATTGCTACGACCCGTATTCGCACCGACAC	-0.484 ± 0.16	0.91 ± 0.58
ACATTTGTTGATACAACCATAAAATGATAATTACACCCATAAATTGATAATTACACCCATAAATTGATATTGCCTCTGATCATAGTCAGACCAACATTGCTACGACCCGTATTCGCACCGACACTGA	-0.821 ± 0.28	1.39 ± 0.33
ACATTTGTTGATACAACCATAAAATGATAATTACACCCATAAATTGATAATTACCACTCCCAATTTAACTATAACGCTCTGATCATAGTCAGACCAACATTGCTACGACCCGTATTCGCACCGACAC	-0.782 ± 0.24	2.61 ± 0.18
ACATTTGTTGATACAACCATAAAATGATAATTACACCCATAAATTGATAATTAGAACACCCATAAATTGATATTGCCTCTGATCATAGTCAGACCAACATTGCTACGACCCGTATTCGCACCGACAC	-0.195 ± 0.2	-0.0187 ± 0.33
ACATTTGTTGATACAACCATAAAATGATAATTACACCCATAAATTGATAATTAGACAACCCATAAATTGATATTGCCTCTGATCATAGTCAGACCAACATTGCTACGACCCGTATTCGCACCGACAC	-0.476 ± 0.18	0.737 ± 0.02
ACATTTGTTGATACAACCATAAAATGATAATTACACCCATAAATTGATAATTAGACACAAACGCCCGGTCGCGGTAAGAGGATCATAGTCAGACCAACATTGCTACGACCCGTATTCGCACCGACAC	-0.538 ± 0.21	2.66 ± 0.16
ACATTTGTTGATACAACCATAAAATGATAATTACACCCATAAATTGATAATTATACACAAACGCCCGGTCGCGGTAAGAGGATCATAGTCAGACCAACATTGCTACGACCCGTATTCGCACCGACAC	-1.49 ± 0.49	2.63 ± 0.19
ACATTTGTTGATACAACCATAAAATGATAATTACACCCATAAATTGATAATTATACACCCCATAAATTGATATTGCCTCTGATCATAGTCAGACCAACATTGCTACGACCCGTATTCGCACCGACAC	-1.07 ± 0.23	1.28 ± 0.067
ACATTTGTTGATACAACCATAAAATGATAATTACACCCATAAATTGATAATTATACCACCCATAAATTGATATTGCCTCTGATCATAGTCAGACCAACATTGCTACGACCCGTATTCGCACCGACAC	-0.694 ± 0.23	0.802 ± 0.067
ACATTTGTTGATACAACCATAAAATGATAATTACACCCATAAATTGATAATTATCAAAACACCCATAAATTGATATTGCCTCTGATCATAGTCAGACCAACATTGCTACGACCCGTATTCGCACCGA	-0.514 ± 0.17	2.29 ± 0.22
ACATTTGTTGATACAACCATAAAATGATAATTACACCCATAAATTGATAATTATCAAACACCCATAAATTGATATTGCCTCTGATCATAGTCAGACCAACATTGCTACGACCCGTATTCGCACCGAC	-0.252 ± 0.046	1.9 ± 0.28
ACATTTGTTGATACAACCATAAAATGATAATTACACCCATAAATTGATAATTATCAACAAACGCCCGGTCGCGGTAAGAGGATCATAGTCAGACCAACATTGCTACGACCCGTATTCGCACCGACAC	-0.451 ± 0.085	2.49 ± 0.05
